Assay: Western blot, mature upper band, B3GnT2-/- HEK293T
Conditions: glycan lost; control: wild-type LRP6

B1: LRP6: N486Q (protein)
parent chain: MGAVLRSLLACSFCVLLRAAPLLLYANRRDLRLVDATNGKENATIVVGGLEDAAAVDFVFSHGLIYWSDVSEEAIKRTEFNKTESVQNVVVSGLLSPDGLACDWLGEKLYWTDSETNRIEVSNLDGSLRKVLFWQELDQPRAIALDPSSGFMYWTDWGEVPKIERAGMDGSSRFIIINSEIYWPNGLTLDYEEQKLYWADAKLNFIHKSNLDGTNRQAVVKGSLPHPFALTLFEDILYWTDWSTHSILACNKYTGEGLREIHSDIFSPMDIHAFSQQRQPNATNPCGIDNGGCSHLCLMSPVKPFYQCACPTGVKLLENGKTCKDGATELLLLARRTDLRRISLDTPDFTDIVLQLEDIRHAIAIDYDPVEGYIYWTDDEVRAIRRSFIDGSGSQFVVTAQIAHPDGIAVDWVARNLYWTDTGTDRIEVTRLNGTMRKILISEDLEEPRAIVLDPMVGYMYWTDWGEIPKIERAALDGSDRVVLVNTSLGWPNGLALDYDEGKIYWGDAKTDKIEVMNTDGTGRRVLVEDKIPHIFGFTLLGDYVYWTDWQRRSIERVHKRSAEREVIIDQLPDLMGLKATNVHRVIGSNPCAEENGGCSHLCLYRPQGLRCACPIGFELISDMKTCIVPEAFLLFSRRADIRRISLETNNNNVAIPLTGVKEASALDFDVTDNRIYWTDISLKTISRAFMNGSALEHVVEFGLDYPEGMAVDWLGKNLYWADTGTNRIEVSKLDGQHRQVLVWKDLDSPRALALDPAEGFMYWTEWGGKPKIDRAAMDGSERTTLVPNVGRANGLTIDYAKRRLYWTDLDTNLIESSNMLGLNREVIADDLPHPFGLTQYQDYIYWTDWSRRSIERANKTSGQNRTIIQGHLDYVMDILVFHSSRQSGWNECASSNGHCSHLCLAVPVGGFVCGCPAHYSLNADNRTCSAPTTFLLFSQKSAINRMVIDEQQSPDIILPIHSLRNVRAIDYDPLDKQLYWIDSRQNMIRKAQEDGSQGFTVVVSSVPSQNLEIQPYDLSIDIYSRYIYWTCEATNVINVTRLDGRSVGVVLKGEQDRPRAVVVNPEKGYMYFTNLQERSPKIERAALDGTEREVLFFSGLSKPIALALDSRLGKLFWADSDLRRIESSDLSGANRIVLEDSNILQPVGLTVFENWLYWIDKQQQMIEKIDMTGREGRTKVQARIAQLSDIHAVKELNLQEYRQHPCAQDNGGCSHICLVKGDGTTRCSCPMHLVLLQDELSCGEPPTCSPQQFTCFTGEIDCIPVAWRCDGFTECEDHSDELNCPVCSESQFQCASGQCIDGALRCNGDANCQDKSDEKNCEVLCLIDQFRCANGQCIGKHKKCDHNVDCSDKSDELDCYPTEEPAPQATNTVGSVIGVIVTIFVSGTVYFICQRMLCPRMKGDGETMTNDYVVHGPASVPLGYVPHPSSLSGSLPGMSRGKSMISSLSIMGGSSGPPYDRAHVTGASSSSSSSTKGTYFPAILNPPPSPATERSHYTMEFGYSSNSPSTHRSYSYRPYSYRHFAPPTTPCSTDVCDSDYAPSRRMTSVATAKGYTSDLNYDSEPVPPPPTPRSQYLSAEENYESCPPSPYTERSYSHHLYPPPPSPCTDSS
In the case of B1, the localisation_or_trafficking is reported as “no change”.

B2: LRP6: N859Q (protein)
parent chain: MGAVLRSLLACSFCVLLRAAPLLLYANRRDLRLVDATNGKENATIVVGGLEDAAAVDFVFSHGLIYWSDVSEEAIKRTEFNKTESVQNVVVSGLLSPDGLACDWLGEKLYWTDSETNRIEVSNLDGSLRKVLFWQELDQPRAIALDPSSGFMYWTDWGEVPKIERAGMDGSSRFIIINSEIYWPNGLTLDYEEQKLYWADAKLNFIHKSNLDGTNRQAVVKGSLPHPFALTLFEDILYWTDWSTHSILACNKYTGEGLREIHSDIFSPMDIHAFSQQRQPNATNPCGIDNGGCSHLCLMSPVKPFYQCACPTGVKLLENGKTCKDGATELLLLARRTDLRRISLDTPDFTDIVLQLEDIRHAIAIDYDPVEGYIYWTDDEVRAIRRSFIDGSGSQFVVTAQIAHPDGIAVDWVARNLYWTDTGTDRIEVTRLNGTMRKILISEDLEEPRAIVLDPMVGYMYWTDWGEIPKIERAALDGSDRVVLVNTSLGWPNGLALDYDEGKIYWGDAKTDKIEVMNTDGTGRRVLVEDKIPHIFGFTLLGDYVYWTDWQRRSIERVHKRSAEREVIIDQLPDLMGLKATNVHRVIGSNPCAEENGGCSHLCLYRPQGLRCACPIGFELISDMKTCIVPEAFLLFSRRADIRRISLETNNNNVAIPLTGVKEASALDFDVTDNRIYWTDISLKTISRAFMNGSALEHVVEFGLDYPEGMAVDWLGKNLYWADTGTNRIEVSKLDGQHRQVLVWKDLDSPRALALDPAEGFMYWTEWGGKPKIDRAAMDGSERTTLVPNVGRANGLTIDYAKRRLYWTDLDTNLIESSNMLGLNREVIADDLPHPFGLTQYQDYIYWTDWSRRSIERANKTSGQNRTIIQGHLDYVMDILVFHSSRQSGWNECASSNGHCSHLCLAVPVGGFVCGCPAHYSLNADNRTCSAPTTFLLFSQKSAINRMVIDEQQSPDIILPIHSLRNVRAIDYDPLDKQLYWIDSRQNMIRKAQEDGSQGFTVVVSSVPSQNLEIQPYDLSIDIYSRYIYWTCEATNVINVTRLDGRSVGVVLKGEQDRPRAVVVNPEKGYMYFTNLQERSPKIERAALDGTEREVLFFSGLSKPIALALDSRLGKLFWADSDLRRIESSDLSGANRIVLEDSNILQPVGLTVFENWLYWIDKQQQMIEKIDMTGREGRTKVQARIAQLSDIHAVKELNLQEYRQHPCAQDNGGCSHICLVKGDGTTRCSCPMHLVLLQDELSCGEPPTCSPQQFTCFTGEIDCIPVAWRCDGFTECEDHSDELNCPVCSESQFQCASGQCIDGALRCNGDANCQDKSDEKNCEVLCLIDQFRCANGQCIGKHKKCDHNVDCSDKSDELDCYPTEEPAPQATNTVGSVIGVIVTIFVSGTVYFICQRMLCPRMKGDGETMTNDYVVHGPASVPLGYVPHPSSLSGSLPGMSRGKSMISSLSIMGGSSGPPYDRAHVTGASSSSSSSTKGTYFPAILNPPPSPATERSHYTMEFGYSSNSPSTHRSYSYRPYSYRHFAPPTTPCSTDVCDSDYAPSRRMTSVATAKGYTSDLNYDSEPVPPPPTPRSQYLSAEENYESCPPSPYTERSYSHHLYPPPPSPCTDSS
For B2, the localisation_or_trafficking was “no change”.

B3: LRP6: N926Q (protein)
parent chain: MGAVLRSLLACSFCVLLRAAPLLLYANRRDLRLVDATNGKENATIVVGGLEDAAAVDFVFSHGLIYWSDVSEEAIKRTEFNKTESVQNVVVSGLLSPDGLACDWLGEKLYWTDSETNRIEVSNLDGSLRKVLFWQELDQPRAIALDPSSGFMYWTDWGEVPKIERAGMDGSSRFIIINSEIYWPNGLTLDYEEQKLYWADAKLNFIHKSNLDGTNRQAVVKGSLPHPFALTLFEDILYWTDWSTHSILACNKYTGEGLREIHSDIFSPMDIHAFSQQRQPNATNPCGIDNGGCSHLCLMSPVKPFYQCACPTGVKLLENGKTCKDGATELLLLARRTDLRRISLDTPDFTDIVLQLEDIRHAIAIDYDPVEGYIYWTDDEVRAIRRSFIDGSGSQFVVTAQIAHPDGIAVDWVARNLYWTDTGTDRIEVTRLNGTMRKILISEDLEEPRAIVLDPMVGYMYWTDWGEIPKIERAALDGSDRVVLVNTSLGWPNGLALDYDEGKIYWGDAKTDKIEVMNTDGTGRRVLVEDKIPHIFGFTLLGDYVYWTDWQRRSIERVHKRSAEREVIIDQLPDLMGLKATNVHRVIGSNPCAEENGGCSHLCLYRPQGLRCACPIGFELISDMKTCIVPEAFLLFSRRADIRRISLETNNNNVAIPLTGVKEASALDFDVTDNRIYWTDISLKTISRAFMNGSALEHVVEFGLDYPEGMAVDWLGKNLYWADTGTNRIEVSKLDGQHRQVLVWKDLDSPRALALDPAEGFMYWTEWGGKPKIDRAAMDGSERTTLVPNVGRANGLTIDYAKRRLYWTDLDTNLIESSNMLGLNREVIADDLPHPFGLTQYQDYIYWTDWSRRSIERANKTSGQNRTIIQGHLDYVMDILVFHSSRQSGWNECASSNGHCSHLCLAVPVGGFVCGCPAHYSLNADNRTCSAPTTFLLFSQKSAINRMVIDEQQSPDIILPIHSLRNVRAIDYDPLDKQLYWIDSRQNMIRKAQEDGSQGFTVVVSSVPSQNLEIQPYDLSIDIYSRYIYWTCEATNVINVTRLDGRSVGVVLKGEQDRPRAVVVNPEKGYMYFTNLQERSPKIERAALDGTEREVLFFSGLSKPIALALDSRLGKLFWADSDLRRIESSDLSGANRIVLEDSNILQPVGLTVFENWLYWIDKQQQMIEKIDMTGREGRTKVQARIAQLSDIHAVKELNLQEYRQHPCAQDNGGCSHICLVKGDGTTRCSCPMHLVLLQDELSCGEPPTCSPQQFTCFTGEIDCIPVAWRCDGFTECEDHSDELNCPVCSESQFQCASGQCIDGALRCNGDANCQDKSDEKNCEVLCLIDQFRCANGQCIGKHKKCDHNVDCSDKSDELDCYPTEEPAPQATNTVGSVIGVIVTIFVSGTVYFICQRMLCPRMKGDGETMTNDYVVHGPASVPLGYVPHPSSLSGSLPGMSRGKSMISSLSIMGGSSGPPYDRAHVTGASSSSSSSTKGTYFPAILNPPPSPATERSHYTMEFGYSSNSPSTHRSYSYRPYSYRHFAPPTTPCSTDVCDSDYAPSRRMTSVATAKGYTSDLNYDSEPVPPPPTPRSQYLSAEENYESCPPSPYTERSYSHHLYPPPPSPCTDSS
In the case of B3, the localisation_or_trafficking is reported as “no change”.

B4: LRP6: N865Q (protein)
parent chain: MGAVLRSLLACSFCVLLRAAPLLLYANRRDLRLVDATNGKENATIVVGGLEDAAAVDFVFSHGLIYWSDVSEEAIKRTEFNKTESVQNVVVSGLLSPDGLACDWLGEKLYWTDSETNRIEVSNLDGSLRKVLFWQELDQPRAIALDPSSGFMYWTDWGEVPKIERAGMDGSSRFIIINSEIYWPNGLTLDYEEQKLYWADAKLNFIHKSNLDGTNRQAVVKGSLPHPFALTLFEDILYWTDWSTHSILACNKYTGEGLREIHSDIFSPMDIHAFSQQRQPNATNPCGIDNGGCSHLCLMSPVKPFYQCACPTGVKLLENGKTCKDGATELLLLARRTDLRRISLDTPDFTDIVLQLEDIRHAIAIDYDPVEGYIYWTDDEVRAIRRSFIDGSGSQFVVTAQIAHPDGIAVDWVARNLYWTDTGTDRIEVTRLNGTMRKILISEDLEEPRAIVLDPMVGYMYWTDWGEIPKIERAALDGSDRVVLVNTSLGWPNGLALDYDEGKIYWGDAKTDKIEVMNTDGTGRRVLVEDKIPHIFGFTLLGDYVYWTDWQRRSIERVHKRSAEREVIIDQLPDLMGLKATNVHRVIGSNPCAEENGGCSHLCLYRPQGLRCACPIGFELISDMKTCIVPEAFLLFSRRADIRRISLETNNNNVAIPLTGVKEASALDFDVTDNRIYWTDISLKTISRAFMNGSALEHVVEFGLDYPEGMAVDWLGKNLYWADTGTNRIEVSKLDGQHRQVLVWKDLDSPRALALDPAEGFMYWTEWGGKPKIDRAAMDGSERTTLVPNVGRANGLTIDYAKRRLYWTDLDTNLIESSNMLGLNREVIADDLPHPFGLTQYQDYIYWTDWSRRSIERANKTSGQNRTIIQGHLDYVMDILVFHSSRQSGWNECASSNGHCSHLCLAVPVGGFVCGCPAHYSLNADNRTCSAPTTFLLFSQKSAINRMVIDEQQSPDIILPIHSLRNVRAIDYDPLDKQLYWIDSRQNMIRKAQEDGSQGFTVVVSSVPSQNLEIQPYDLSIDIYSRYIYWTCEATNVINVTRLDGRSVGVVLKGEQDRPRAVVVNPEKGYMYFTNLQERSPKIERAALDGTEREVLFFSGLSKPIALALDSRLGKLFWADSDLRRIESSDLSGANRIVLEDSNILQPVGLTVFENWLYWIDKQQQMIEKIDMTGREGRTKVQARIAQLSDIHAVKELNLQEYRQHPCAQDNGGCSHICLVKGDGTTRCSCPMHLVLLQDELSCGEPPTCSPQQFTCFTGEIDCIPVAWRCDGFTECEDHSDELNCPVCSESQFQCASGQCIDGALRCNGDANCQDKSDEKNCEVLCLIDQFRCANGQCIGKHKKCDHNVDCSDKSDELDCYPTEEPAPQATNTVGSVIGVIVTIFVSGTVYFICQRMLCPRMKGDGETMTNDYVVHGPASVPLGYVPHPSSLSGSLPGMSRGKSMISSLSIMGGSSGPPYDRAHVTGASSSSSSSTKGTYFPAILNPPPSPATERSHYTMEFGYSSNSPSTHRSYSYRPYSYRHFAPPTTPCSTDVCDSDYAPSRRMTSVATAKGYTSDLNYDSEPVPPPPTPRSQYLSAEENYESCPPSPYTERSYSHHLYPPPPSPCTDSS
In the case of B4, the localisation_or_trafficking is reported as “no change”.

Reference: PMC10047360
